Consider 11 molecules from patent US20250250357A1 (NANJING ZAIMING PHARMACEUTICAL, published 2025).

First the molecules themselves.
B1: S009-F2-56.12 (antibody, human IgG1, kappa, V domains shown)
VH: DVQLQESGPGMVKPSQSLSLTCTVTGYSITSGYDWHWIRHFPGNKLEWMGYISYSGSTNYNPSLKSRISITHDTSKNHFFLKLKSVTTEDTATYYCARGTGPDYWGQGTTLTVSS
VL: DIVMTQSQKFMSTSVGDRVSITCKASQNVRTAVAWYQQKPGQSPKALIHLPSNRHTGVPDRFTGSGSGTDFTLTISNVQSEDLADYFCLQHWNYPLTFGGGTKLEIKR
notes: human-murine chimeric antibody, human IgG1/kappa constant regions
B2: S009-F4-94.15 (antibody, human IgG1, kappa, V domains shown)
VH: QVQLHQPGAELVRPGSSVKLSCKASGYTFTSYWVHWVQQRPRQGLEWIGNIDPSDSEIHYNQKFKDKATLTVDKSSSTAYIHLSRLTSEDSAIYYCVRGGVPWFAYWGQGTLVTVSA
VL: QIVLTQSPAIMSASPGEKVTLTCSASSSVSSTYLYWFQQKPGSSPKVWIYSTSNLASGVPARFSGSGSGTSYSLTISSMEAEDAASYFCHQWISYPYTFGGGTKLEIKR
notes: as for B1
B3: S009-F3-63.5 (antibody, human IgG1, kappa, V domains shown)
VH: QVQLQQSGAELVRPGASVTLSCKASGYTFTDYEMHWVKQTPVHGLEWIGGIDPETGDTAYNQQFKGKAILTADRSSSTAYMELRSLTSEDSAVYYCTNYASSREDYWGQGTTLTVSS
VL: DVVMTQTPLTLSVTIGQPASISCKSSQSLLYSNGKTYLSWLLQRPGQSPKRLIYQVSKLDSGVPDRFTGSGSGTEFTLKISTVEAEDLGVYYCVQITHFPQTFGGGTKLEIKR
notes: as for B1
B4: S009-F6-62.5 (antibody, human IgG1, kappa, V domains shown)
VH: QVQLQQPGTELVKPGASVKLSCRASGYTFTAYWMHWVKQRPGQGLEWIGNINPSNGGTDFNEKFKSKATLTVDKSSSTAYMQLSSLTSEDSAVYYCARGRGYFDVWGTGTTVTVSS
VL: DILLTQSPAILSVSPGERVSFSCRASKNIGTSIHWYQQRTNGSPRLLIKYASESISGIPSRFSGSGSGTDFTLNINSVESEDIADYYCQQSNSWPTLTFGAGTKLELKR
notes: as for B1
B5: S009-F6-76.1 (antibody, human IgG1, kappa, V domains shown)
VH: QVQLQQSGPELVKPGASVKISCKASGYTFTDYYINWVKQRPGQGLEWIGWIFPGRGSTFYYEKFKGKATLTVDKSSSTAYMLLSSLTSEDSAVYFCARRGDSAGYEDLDYWGQGTSVTVSS
VL: NIVMTQSPKFMSMSVGERVTLSCKASENVVTYVSWYQQKPKQSPKLLIYGASKRYTGVPDRFTGSGSATDFTLTISSVQAEDLGDYHCGQSYSYPYTFGGGTKLEIKR
notes: as for B1
B6: F2.23.12-H5 (scFv, not shown: small tags and cut ends)
scFv: EVQLVQSGAEVKKPGASVKVSCKASGYTFTNYWMHWVRQAPGQGLEWMGNINPSNGGPYYNERFRSRVTMTVDKSTSTAYMELSSLRSEDTAVYYCARPYYGSSYGYFDYWGQGTTVTVSSGGGGSGGGGSGGGGSDIQMTQSPSSLSASVGDRVTITCKASQDINKYIAWYQQKPGKAPKLLIHYTSELQPGVPSRFSGSGSGTDFTFTISSLQPEDIATYYCLQYANPLRTFGGGTKVEIK
notes: also called S009-F2.23.12 humanized VH2 + VL1
B7: F2.23.12-H13 (scFv, not shown: small tags and cut ends)
scFv: B6 scFv with N55Q
notes: also called S009-F2.23.12 humanized VH4 + VL1
B8: F2.23.12-H16 (scFv, not shown: small tags and cut ends)
scFv: B6 scFv with N55Q, Q174H, T205R, F207Y
notes: also called S009-F2.23.12 humanized VH4 + VL4
B9: F2.23.12-H1 (scFv, not shown: small tags and cut ends)
scFv: B6 scFv with A79V
notes: also called S009-F2.23.12 humanized VH1 + VL1
B10: F2.23.12-H4 (scFv, not shown: small tags and cut ends)
scFv: B6 scFv with A79V, Q174H, T205R, F207Y
notes: also called S009-F2.23.12 humanized VH1 + VL4
B11: F2.23.12-H8 (scFv, not shown: small tags and cut ends)
scFv: B6 scFv with Q174H, T205R, F207Y
notes: also called S009-F2.23.12 humanized VH2 + VL4

Changes are numbered by the printed parent chain.

T2 sequence (Q13421 other isoform, or with tags, fused parts or gaps limits assumed): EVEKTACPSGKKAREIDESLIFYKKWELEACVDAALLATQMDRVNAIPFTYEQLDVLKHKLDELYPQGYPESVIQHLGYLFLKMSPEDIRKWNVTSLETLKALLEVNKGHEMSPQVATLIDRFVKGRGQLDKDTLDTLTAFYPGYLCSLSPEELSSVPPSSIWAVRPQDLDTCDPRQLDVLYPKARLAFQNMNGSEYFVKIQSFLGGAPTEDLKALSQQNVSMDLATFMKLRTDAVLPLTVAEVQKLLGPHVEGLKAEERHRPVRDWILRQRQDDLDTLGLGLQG

One assay deals with T1, human MSLN-FL-his protein (human, UniProt Q13421 296-580).
T1 construct: made in HEK293E cells, purified on nickel column; also called hMSLN-FL-his; human MSLN full-length protein; not shown: His tag
T1 sequence (Q13421 other isoform, or with tags, fused parts or gaps): as the sequence (Q13421 other isoform, or with tags, fused parts or gaps limits assumed) above, with R14P counted along it
Put plainly: competitive ELISA; row F6-62.5. For orientation: An ELISA detects its analyte on a solid surface through an enzyme-linked reagent.
As for B1, the competition rate is -233%.

As for B2, the competition rate is -262%.

Consider B3, for which the competition rate is -366%.

Regarding B4, the competition rate was -76%.

On to B5, for which the competition rate worked out at 60%.

For another assay, the target named is T1, human MSLN-FL-his protein. Put plainly: competitive ELISA; row F4-94.15.
In the case of B1, the competition rate worked out at 87%.

With B2, the competition rate turned out to be 100%.

Turning to B3, the competition rate stood at 11%.

On to B4, for which the competition rate came out at 25%.

Regarding B5, the competition rate stood at 94%.

The next assay concerns the target T2, human MSLN-hFc protein (Acro, Cat. No. MSN-H5253) (human, UniProt Q13421 296-580).
T2 construct: bought protein; also called human MSLN full-length protein; not shown: human Fc (hFc) of the bought protein
The assay is described as follows: ELISA, coated human MSLN-hFc, antibody 0.0001 nM.
On to B6, for which the OD450 nm is 0.06.

Turning to B7, the OD450 nm worked out at 0.05.

Molecule B8 gave an OD450 nm of 0.05.

With B9, the OD450 nm came out at 0.07.

Take B10: the OD450 nm was 0.07.

In turn, B11 showed an OD450 nm of 0.05.

For the next assay, the target named is T2, human MSLN-hFc protein (Acro, Cat. No. …). The assay is described as follows: ELISA, coated human MSLN-hFc, antibody 100 nM.
B6 gave an OD450 nm of 1.37.

Turning to B7, the OD450 nm was 1.38.

Molecule B8 returned an OD450 nm of 1.2.

B9 showed an OD450 nm of 1.22.

In the case of B10, the OD450 nm is 1.22.

B11 gave an OD450 nm of 1.22.

Another assay has the same target. The assay is described as follows: ELISA, coated human MSLN-hFc, antibody 1 nM.
For B6, the OD450 nm is 0.22.

Take B7: the OD450 nm worked out at 0.16.

In the case of B8, the OD450 nm was 0.13.

Regarding B9, the OD450 nm came to 0.26.

B10: the OD450 nm was found to be 0.57.

With B11, the OD450 nm came out at 0.17.

Another assay shares this target. Put plainly: ELISA, coated human MSLN-hFc, antibody 0.001 nM.
Molecule B6 returned an OD450 nm of 0.06.

Take B7: the OD450 nm came out at 0.07.

Turning to B8, the OD450 nm was 0.07.

Consider B9, for which the OD450 nm turned out to be 0.06.

Regarding B10, the OD450 nm was determined as 0.08.

B11: the OD450 nm came out at 0.07.

For a further assay the target is unchanged. The assay is described as follows: ELISA, coated human MSLN-hFc, antibody 10 nM.
In the case of B6, the OD450 nm worked out at 0.83.

B7 displayed an OD450 nm of 0.73.

B8 yielded an OD450 nm of 0.64.

B9 displayed an OD450 nm of 0.82.

B10: the OD450 nm worked out at 0.92.

The molecule B11 yielded an OD450 nm of 0.62.

The next assay has as its target T1, human MSLN-FL-his protein. The assay is described as follows: SPR (Biacore), antibody captured on Protein A chip.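 Further: measured at 25 °C, analyte injected 240 s in five twofold dilutions from 200 nM, dissociation up to 600 s, double-referenced, fitted with Langmuir 1:1 model.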 Background: In SPR one partner is held on a chip, and binding of the other changes the refractive index at the surface.
One may read the Kd as a measure of binding affinity in units of concentration. Read a high Kd as a looser complex. As a reminder, the koff is the rate constant with which the complex falls apart. Read a low koff as a long-lived complex. As a reminder, the kon is the second-order rate constant of association. B1 registered a Kd of 43.1 nM, a dissociation rate constant (koff) of 0.00312 s⁻¹ and a kon of 72400 M⁻¹ s⁻¹.

Take B2: the affinity, expressed as Kd, was 1.2 nM; the off-rate (koff) is 0.000185 s⁻¹; the kon came to 154000 M⁻¹ s⁻¹.

In turn, B3 had an equilibrium dissociation constant (Kd) of 105 nM, a koff of 0.000478 s⁻¹ and an on-rate constant (kon) of 4560 M⁻¹ s⁻¹.

For B4, binding was characterised by a dissociation constant (Kd) of 120 nM, the koff turned out to be 0.0173 s⁻¹ and the kon amounted to 144000 M⁻¹ s⁻¹.

B5: the affinity, expressed as Kd, was 10.1 nM; the koff stood at 0.000369 s⁻¹; the kon stood at 36700 M⁻¹ s⁻¹.

Another assay has as its target T1, human MSLN-FL-his protein. The assay is described as follows: competitive ELISA; row Tab142.
Take B1: the competition rate was found to be 3%.

Consider B2, for which the competition rate was determined as 26%.

In the case of B3, the competition rate turned out to be 2%.

Take B4: the competition rate was 28%.

With B5, the competition rate was determined as 39%.

Another assay deals with T1, human MSLN-FL-his protein. Put plainly: competitive ELISA; row F2-56.12.
Take B1: the competition rate was 97%.

On to B2, for which the competition rate came out at 101%.

For the molecule B3, the competition rate was -77%.

B4: the competition rate was -143%.

In the case of B5, the competition rate came out at 99%.

A further assay concerns the target T2, human MSLN-hFc protein (Acro, Cat. No. …). Put plainly: ELISA, coated human MSLN-hFc, antibody 0.1 nM.
For B6, the OD450 nm worked out at 0.09.

B7 returned an OD450 nm of 0.08.

In turn, B8 gave an OD450 nm of 0.07.

B9 yielded an OD450 nm of 0.09.

Consider B10, for which the OD450 nm was 0.18.

In turn, B11 yielded an OD450 nm of 0.09.

Another assay shares this target. The assay is described as follows: ELISA, coated human MSLN-hFc, antibody 0.01 nM.
B6 displayed an OD450 nm of 0.07.

As for B7, the OD450 nm turned out to be 0.07.

In the case of B8, the OD450 nm came to 0.06.

The molecule B9 yielded an OD450 nm of 0.07.

Consider B10, for which the OD450 nm stood at 0.09.

B11: the OD450 nm was found to be 0.07.

For a further assay, the target named is T1, human MSLN-FL-his protein. Put plainly: competitive ELISA; row F6-76.1.
In the case of B1, the competition rate stood at 93%.

As for B2, the competition rate was found to be 99%.

In the case of B3, the competition rate was -3%.

As to B4, the competition rate turned out to be 57%.

On to B5, for which the competition rate stood at 98%.

The next assay concerns the target T1, human MSLN-FL-his protein. Put plainly: competitive ELISA; row Tab106.
Turning to B1, the competition rate stood at 1%.

As for B2, the competition rate worked out at 19%.

Consider B3, for which the competition rate stood at 15%.

As for B4, the competition rate amounted to 30%.

Take B5: the competition rate came to 27%.

The target in a further assay is T1, human MSLN-FL-his protein. The assay is described as follows: competitive ELISA; row F3-63.5.
Consider B1, for which the competition rate is -24%.

For the molecule B2, the competition rate is -10%.

As for B3, the competition rate came to 58%.

In the case of B4, the competition rate is -17%.

Regarding B5, the competition rate was 2%.
